# Data published in patent publication US20240309095A1 (Incyte, published 2024).
# Positions count from the first letter of the chain named.
# T1: human B7-H4 (purified monomeric recombinant human protein, ACRO biosystems) (human, UniProt Q7Z7D3 29-258, limits assumed, chemically biotinylated (EZ-Link NHS-LC-Biotin) in the yeast display and competition experiments; non-biotinylated in SPR)
# T1 construct: Bought recombinant monomeric protein; also called B7x; B7S1
# T1 sequence: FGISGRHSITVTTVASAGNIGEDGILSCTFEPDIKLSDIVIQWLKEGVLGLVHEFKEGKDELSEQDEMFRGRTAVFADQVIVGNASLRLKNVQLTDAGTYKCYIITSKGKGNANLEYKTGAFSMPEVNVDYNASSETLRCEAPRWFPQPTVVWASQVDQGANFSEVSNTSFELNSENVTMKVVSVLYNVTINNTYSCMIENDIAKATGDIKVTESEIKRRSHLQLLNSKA
# B1: B07 scFv-Fc (scFv, V domains shown)
# VH: EVQLVESGGGVVQPGRSLRLSCAASGFTFGDRAMNWVRQAPGKGLEWVSAISGSGATTYYADSVKGRFTISRDNSKNTLYLQMNSLRAEDTAVYYCARKRWYGMDVWGQGTTVTVSS
# VL: SYELTQPPSVSVAPGKTARITCGGNNIGSKSVHWYQQKPGQAPVLVVYDDSDRPSGIPERFSGSNSGNTATLTISRVEAGDEADYYCQVWDRGMIFGTGTKLTVL
# notes: Tested as scFv-Fc fusion (human IgG1 Fc, vector pDNL9) in crude yeast supernatant; Combo 2 library
# B2: Parental (H6.1) scFv-Fc (scFv, V domains shown)
# VH: B1 VH with G30S, D31S, R32Y, A33S, A56G, T57S
# VL: SYELTQPPSVSVAPGKTARITCGGNNIGSKSVHWYQQKPGQAPVLVVYDDSDRPSGIPERFSGSNSGNTATLTISRVEAGDEADYYCQVWDSRTYVFGTGTKLTVL
# notes: Expressed with the 24 clones as scFv-Fc fusion (human IgG1 Fc) in yeast for SPR; also called parental antibody; parental molecule
# B3: A06 scFv-Fc (scFv, V domains shown)
# VH: B1 VH with S54T
# VL: B1 VL with G28V, S29T
# notes: Tested as scFv-Fc fusion (human IgG1 Fc, vector pDNL9) in crude yeast supernatant; Combo 1 library
# B4: G05 scFv-Fc (scFv, V domains shown)
# VH: B1 VH with G30S, D31S, A33S, A56S, T58V
# VL: B2 VL with N26K, I27L, S29D, S31W, D49E, S51V
# notes: Tested as scFv-Fc fusion (human IgG1 Fc, vector pDNL9) in crude yeast supernatant; Combo 1 library; also called G5
# B5: B12 scFv-Fc (scFv, V domains shown)
# VH: B1 VH with G30S, S54T, T57S
# VL: B1 VL
# notes: as for B1
# B6: B08 scFv-Fc (scFv, V domains shown)
# VH: B1 VH with G30S, G53A, T57S, T58R
# VL: B1 VL
# notes: as for B1
# B7: A01 scFv-Fc (scFv, V domains shown)
# VH: B1 VH with G30S, D31N, R32K
# VL: B1 VL
# notes: as for B3
# B8: B05 scFv-Fc (scFv, V domains shown)
# VH: B1 VH with F27L, G30S, D31S, S54T
# VL: B1 VL with S31M
# notes: as for B3
# B9: B11 scFv-Fc (scFv, V domains shown)
# VH: B1 VH with G30T, D31S, T58A
# VL: B1 VL
# notes: as for B1
# B10: A11 scFv-Fc (scFv, V domains shown)
# VH: B1 VH with G30S, D31S, A33S, A56S, T58V
# VL: B1 VL
# notes: as for B1
# B11: B03 scFv-Fc (scFv, V domains shown)
# VH: B1 VH with A56S, T57G
# VL: B1 VL with S29M
# notes: as for B3
# B12: A09 scFv-Fc (scFv, V domains shown)
# VH: B1 VH with G30S, D31S, A33S, A56L, T58S
# VL: B1 VL
# notes: as for B1
# B13: B09 scFv-Fc (scFv, V domains shown)
# VH: B1 VH with F29Y, G30S, D31S, G53S, A56T
# VL: B1 VL
# notes: as for B1
# B14: A08 scFv-Fc (scFv, V domains shown)
# VH: B1 VH with G53S, A56T, T58S
# VL: B1 VL
# notes: as for B1
# B15: B06 scFv-Fc (scFv, V domains shown)
# VH: B1 VH with G30S, D31N, R32K
# VL: B1 VL with S29V, S31A
# notes: as for B3
# B16: B10 scFv-Fc (scFv, V domains shown)
# VH: B1 VH with G30S, D31T, S54T, A56D
# VL: B2 VL with D91G, S92R, R93Y, T94Q, Y95M, V96I
# notes: as for B1
# B17: B01 scFv-Fc (scFv, V domains shown)
# VH: B1 VH with G30S, G53Y, S54E, A56R, T58Q
# VL: B2 VL with S29V
# notes: as for B3
# B18: B02 scFv-Fc (scFv, V domains shown)
# VH: B1 VH with G30S, D31S, A33S, A56S, T58V
# VL: B2 VL with S29V, P54S, S55P
# notes: as for B3
# B19: A05 scFv-Fc (scFv, V domains shown)
# VH: B1 VH with F29Y, G30S, D31S, A56S, T57N, T58A
# VL: B1 VL
# notes: as for B3
# B20: A12 scFv-Fc (scFv, V domains shown)
# VH: B1 VH with G30D, D31N, G53S, A56S, T58M
# VL: B2 VL
# notes: as for B1
# B21: A04 scFv-Fc (scFv, V domains shown)
# VH: B1 VH with G30S, D31S, A33S, A56D
# VL: B1 VL
# notes: as for B3
# B22: A10 scFv-Fc (scFv, V domains shown)
# VH: B1 VH with G30S, D31S, A33S, S54T, A56Y
# VL: B1 VL
# notes: as for B1
# B23: B04 scFv-Fc (scFv, V domains shown)
# VH: B1 VH with T28S, G30S, D31S, I51V, A56S, T57G
# VL: B1 VL with S29L
# notes: as for B3
# B24: A02 scFv-Fc (scFv, V domains shown)
# VH: B1 VH with G30T, D31S, G53Y, S54E, A56R, T58Q
# VL: B1 VL
# notes: as for B3
# B25: A07 scFv-Fc (scFv, V domains shown)
# VH: B1 VH with G30S, D31S, A33S, A56S, T58V
# VL: B2 VL
# notes: as for B1
# Target: T1, human B7-H4 (purified monomeric …)
# Assay: SPR (Carterra LSA); scFv-Fc captured on anti-human IgG Fc, antigen injected
# Protocol: (§1) Finally, the affinity of the 24 clones was determined using high-throughput surface plasmon resonance (SPR). The supernatants were arrayed by non-covalent capture in a medium-density SPR chip previously coupled with an anti-human polyclonal antibody and (at least 4 replicates per clone). Non-biotinylated antigen was used for all affinity measurements and sensorgrams were fitted using a pseudo-first-order kinetic model (Lundström 1994). […] In fact, it is notable that the off rates for some of the tested antibodies are probably better than 10⁻⁵ (Table 7), as indicated by the bunching of matured antibodies at that value (Table 7)—such slow off rates are challenging to accurately measure using SPR. No affinity difference was observed between clones coming from one combo library versus the other.
# (§2) The scFv from the final population (round 3, combo libraries) was bulk cloned into a yeast expression vector containing a human IgG1 Fc region to be expressed in the scFv-Fc format. For this, the scFv region was amplified by PCR, digested with BssHII and NheI restriction enzyme (New England Biolabs), and cloned into the pDNL9 vector, 92 clones were analyzed by Sanger sequencing and 24 of these plus the parental were expressed using S. cerevisiae strain YVH10 (ATCC MYA-4940). scFv-Fc fusions were expressed for 72 h at 20° C. in the presence of galactose. The Carterra LSA surface resonance system was used for the affinity measurements. Briefly, anti-Human IgG Fc (Southern Biotech, #2048-01) was covalently coupled to an HC30M chip following the manufacturer's protocols. Crude yeast supernatants containing the scFv-Fc fusions were arrayed on the chip.
KD fold-improvement [fold over parental],Kd [nM],koff [s⁻¹],kon [M⁻¹ s⁻¹],Binder
138,0.054,1.8e-05,330000,B1
1,7.43,0.0033,450000,B2
221,≤ 0.034,–,320000,B3
119,≤ 0.063,–,160000,B4
89,0.084,2.8e-05,340000,B5
64,0.117,1.8e-05,150000,B6
33,0.224,3.7e-05,170000,B7
109,≤ 0.068,–,150000,B8
109,0.068,1.2e-05,180000,B9
123,0.06,1.1e-05,190000,B10
106,0.07,2.1e-05,300000,B11
100,0.074,1.1e-05,160000,B12
63,0.118,2.5e-05,210000,B13
172,0.043,1.3e-05,310000,B14
76,0.097,1.7e-05,170000,B15
64,0.116,2.9e-05,260000,B16
231,≤ 0.032,–,310000,B17
127,0.059,1.1e-05,180000,B18
63,0.117,2.2e-05,190000,B19
53,0.139,3.2e-05,230000,B20
108,0.069,2.1e-05,310000,B21
72,0.103,1.4e-05,140000,B22
43,0.172,2.7e-05,160000,B23
188,0.039,1.1e-05,280000,B24
27,0.277,4.7e-05,170000,B25

# Target: T1, human B7-H4 (purified monomeric …)
# Assay: SPR (Carterra LSA); scFv-Fc captured on anti-human IgG Fc, antigen injected; asterisk: reached minimum allowed dissociation rate
# Protocol: as §1, §2
row,koff [s⁻¹],Binder
1,≤ 1e-05,B4
2,≤ 1e-05,B8
3,≤ 1e-05,B17

# Target: T1, human B7-H4 (purified monomeric …)
# Assay: SPR (Carterra LSA); scFv-Fc captured on anti-human IgG Fc, antigen injected; asterisk: reached minimum allowed dissociation rate; asterisk: kd at the minimum value allowed (10^-5 s^-1)
# Protocol: as §1
# as §2, with “The Carterra LSA surface resonance system was used for the affinity measurements. Briefly, anti-Human IgG Fc (Southern Biotech, #2048-01) was covalently coupled to an HC30M chip following the manufacturer's protocols. Crude yeast supernatants containing the scFv-Fc fusions were arrayed on the chip.” left out
row,koff [s⁻¹],Binder
1,≤ 1e-05,B3
